This passage reports protein production results from a protein production outcome set (Wang et al. 2014).

This series can be described thus: label from the status in PepcDB records.

Consider “TALIASGLVPQPFYFYGFLPRKKNEQKADLAKLARRHETVVLYESPFRVAKTLTLLATVCEGTRPIVACRELTKRYEEFARGTLAEMVTWAQDHQLKGEFVLLIGGNPDK”, for which the protein production result was “failed”. Next, “TDYDNREKSADIALLKEMNSLRDIIENNSDWIWEVDVAGRYTFSSAKSIELLGRLPHEVIGKTPFDFMPKDEAHRVGKLFAEIAAERIPFAGLQNRNIRADGSEVLIESSGIPLFDHNGEFKGYRGIDRN”: “failed”; “TEALRMEREALLAEMGVAVREDGGTVGVFSPKKTPHLVNLNEDPLMSECLLYHIKDGVTRVGQVDMDIKLTGQFIREQHCLFRSIPQPDGEVVVTLEPCEGAETYVNGKLVTEPLVLKSGNRIVMGKNHVFRFNHPEQARLE”: “failed”. Next, “TETSPDKWLIDGDTPLDEVERAIGYELPEGDYETISGLLFDHANALLKTGDVIEIPLDFEPEDYLNNTSPTQRILRITVLEVERNVPVKLALALLEDHPDNHPAPKENR”: “not failed”. The same measure for “TGGLAIIQSMKHKLPPSERKLADYILAHPHKAIESTVNEISALANSSDAAVIRLCKSLGLKGFQDLKMRVAGDLAKPTFQGYRDIVPHEPLPSISEKTAGNAIQAI”: “failed”; for “TIDLDYQRLALESLRFGHQKILEKIAKEKPKTNASNEDEDNLNASMIVTDTSTGKILALVGGIDYKKSAFNRATQAKRQFGSAIKPFVYQIAFDNGYSTTSKIPDTARNFENGNYSKNSEQNHAWHPSNYSRKFLGLVTLQEALSHSLNLATINLSDQLGFEKIYQSLSDMGFKNLPKDLSIVLGSFAISPIDAAEKYSLFSNYGTMLKPMLIESITNQQNDVKTFTPMETKKITSKEQAFLTLSVLMDAVENGTGSLARIKGLEIAGKTGTSNNNIDAWFIGFTPTLQSVIWFGRDDNTPISKGATGGVVSAPVYSYFMRNILAIEPSLKR”: “failed”; for “TIDLNYQNKVESILKQYYGSELSSGRASFSEGMYAVAIEPSTGKVLAMAGLKNDHGNLVDDSLGTIAKNFTPGSVVKGATLSSGWENKVLRGNEVLYDQEIANIRSWFTRGLTPISAAQALEYSSNTYMVQVALRLMGQDYNTGDALTDRGYQEAMAKLRKTYGEYGLGVSTGLDLPESEGYVPGKYSLGTTLMESFGQYDAYTPMQLGQYISTIANNGNRLAPHVVSDIYEGNDSNKFAQLVRSITPKTLNKIAISDQELAIIQEGFYNVVNSGSGYATGTSMRGNVTTISGKTGTAETFAKNVNGQTVSTYNLNAIAYDTNRKIAVAVMYPHVTTDTTKSHQLVARDMIDQYISQFTGQ”: “failed”. “TIDPKAQKAAWDGLTDLKGARGAVVALDPQTGKVLAMVSAPSYDPSAFAGSTFKESDRFVELDKKKNKPLANRALRETYPPGSTFKILTAAAALEHGIVTDVDARTDAVSPYPLPQSTNKIGSEAGDAVCNKASMKTAMQHSCNNVFLDAASKLGQDKMRETAEKFGFNEDVYSDDFGDLLATKSLYPEDLDKPGTALTGMGQGSLTSTPMQMALVTAGIANDGKVMQPYVVDEVKGPDLDTLEKTEPAVMSEAVSAETAQKVQEMMEFTAKEGSARRAQIDGITVGGKTGTAQRGVDVNDEVPYGWFVSYGKKDDGSSVAVAVFIDPTDMDISRADISGGGLGAPIAKSVMKAVLK”: the protein production entry is “failed”. For the sequence “TIDRDIQWAAQNAITEQVEKSGADRGYVMVQDTRTGEILAMANSPGFDPNDLSKASSAALGNAALQDAYEPGSTAKVMSMAAVLEENVATPETHVVVPNRLHRGDRLFQDDIDHPTWNLTLNGVLAKSSNIGTILAAGQLGKTQKQANEVLYSYMRKFGIGLPTGLGFPGETSGILAPAAKWSTSQQYTIPFGQGVSINAMQAASVYSTIANGGVRVEPTLVRGTKGPDGRFTPAPRPKKTRVVSEKTAKTLAQMLESVVDDEEGTGAKARIPGYRVAGKTGTANRVDPATGKYHGYTSSFAGFAPADNPRITVYCAIQNATQGSYFGGQICGPIYKQVMEFALKTLQVPPTGAGAAHLPVTFTP”, the protein production entry was “failed”. The same measure for “TKALNFTYTLDSGVKGTLYQFPAEYTLLFINNPGCHACAEMIEGLKASPVINGFTAAKKLKVLSIYPDEELDEWKKHRNDFAKEWTNGYDKELVIKNKNLYDLRAIPTLYLLDKNKTVLLKDATLQKVEQYLAERG”: “not failed”; for “TKDWKFTVSMNTAYNKNKIISLPYNGLPNNMQDAYQVYTGRKLADGTYERQWVGGYQEGQEYGVIYAFKSLGIYKSESEIPGNLIDRSTYTENGADAKVLYGPEAWAKLSDAEKEKGLPIQAGDVKWQDVNGDGVIDDYDRVKLGNTIPHWTGGFNINTSWKGLTLNCRLDYALGYWVHDWKTPWIMGNMQGTFNTISLVKDSWSESNPNGKYPVYGWADFLGKRNYDRISDINCYRGDYLAFREISLSYSLPQSWIHKSGLSKVDVSVTAQNLGYITAAKNMATPEYGVSQNGGYPLPRTVVLGLNVTF”: “failed”; for “TLDAGLQRQLEDLALNWKSRLPPRSSLAMVVVDHTDMKVRGWVGSADITDDSRFGHIDMVSAVRSPGSVLKPFIYAMAMDEGLIHPASLLQDVPRRFSDYRPGNFDSGFHGPVSASEALVRSLNLPAVQVLEAYGPKRFAANLRNAGLPLTLPAGAEPNLSLILGGAGARLEDIVAAYSAFARHGKAARLRLKPSDPLTERALMSPGAAWIVRRILAGEAQPVPDASLPQAVPLAWKTGTSYGYRDAWAVGLNARYLIGIWTGRPDGTPVVGQFGFASAVPLLNQVNNLLLARPAMSRGGL”: “failed”.

As to “TLDPSAQAIAEAALARGVQAHQGQYGAVIMLETRTGRILAAATYPPFDPGNWRGKPDTQERVKNRAFLDAYEPGSTMKALTIAAALNDGITTPDTVYETPMSRHVGGRWGHTIGDAVDHPSSLTTQQVLRYSSNVGMSHIVEGFTYQKLRDYLAAYGFGQPVNLTGAVTAQGILKPIDKWNDLERATNSFGQGVSGTTLQVAAAYNAVANDGLYVTPRLIEGAPAGERHEVVRAASARTVREMLKAIVVEGKFASLEGYDLSGKTGTAQVATENGYSNSVYKSTYAGFFPSDTPRVTVAVMVHGAQGEHHGSQVAAPIFREIASGMLSEWGTAPE”, the protein production result is “failed”. The same measure for “TLLLCFIVAGLTGLGDNFTTISWFTFLDFRVQGDYLYFSPLAQSLDEGQWWRLVSPMLLHFGVLHLAMNSLWYWELGKRIELRQGPWALLGLTLLFSLVSNLAQHYTSGPSLFGGLSGVLYGLLGHIWLYQWLAPDRYFNLPKGVLVMMLIWLVVCLTGVVGTLGLGQIANAAHVGGLLIGCLTGLLGGALARRKLSA”: “failed”. As for “TLPPRGRLRIDVPLALAHAILIPNLKHFQSLYPDIDVILVSSDKKTDLISEGVDCLVRLGELQDSSFISRRLGDIRMVTCAAPSYLQQYGRPETLADLDQHRAINFFSDHSRDVMEWKFTKDGKIVSLRPVGSMLVDNSDILL”, the protein production result is “failed”. Next, “TLQEYQKRMKKLDQQYKERIRNAELFLQLETEQVERNYIKEKKAAVKEFEDKKVELKENLIAELEEKKKMIENEKLTMELTGDSMEVKPIMTRKLRRRPNDPVPIPDKRRKPAPAQLNYLLTDEQIMEDLRTLNKLKSPKRPASPSSPEHLPATPAESPAQRFEARIEDGKLYYDKRWYHKSQAIYLESKDNQKLSCVISSVGANEIWVRKTSDSTKMRIYLGQLQRGLFVIRRRSAA”: “failed”. Next, “TLRNYPLTCKVVYSYKASQPDELTIEEHEVLEVIEDGDMEDWVKARNKVGQVGYVPEKYLQFPTS”: “not failed”. Next, “TPVRIESFDNSNIMGTSPVSAMVVFVNGKPSKKDYRKYKIKTVVGPDDYASMREVIRRRYGRVQREALTPPDLIVIDGGQGQVNIAKQVIQEELGLDIPIAGLQKNDKHQTHELLFGDPLEVVDLSRNSQEFFLLQRIQDEVHRFAITFHRQLRSKNSFSSQLDGIDG”: “failed”; “TSSTIFSGVAIYVNGYTDPSAEELRKLMMLHGGQYHVYYSRSKTTHIIATNLPNAKIKELKGEKVIRPEWIVESIKAGRLLSYIPYQLYT”: “not failed”. As for “TTQKGHRQKSFYRGVRAEKWAAWWLRCKGFHIAEIRFKTKCGEIDLIARRGNLVLIVEVKARSTLAEAMAAVSRVNERRIEAAADIWLARQKDRALLCVRFDLIAILPWRWPQHIPAFFM”, the protein production entry is “failed”.
